{"source": "patent US6605443", "about": "(LUDWIG INSTITUTE FOR CANCER RESEARCH, dated 2003)", "binders": {"B1": {"name": "N-terminally Flag-tagged Smad7 (F-Smad7) (other, not shown: small tags and cut ends)", "chain": "MFRTKRSALVRRLWRSRAPGGEDEEEGVGGGGGGGELRGEGATDGRAYGAGGGGAGRAGCCLGKAVRGAKGHHHPHPPTSGAGAAGGAEADLKALTHSVLKKLKERQLELLLQAVESRGGTRTACLLLPGRLDCRLGPGAPASAQPAQPPSSYSLPLLLCKVFRWPDLRHSSEVKRLCCCESYGKINPELVCCNPHHLSRLCELESPPPPYSRYPMDFLKPTAGCPDAVPSSAETGGTNYLAPGGLSDSQLLLEPGDRSHWCVVAYWEEKTRVGRLYCVQEPSLDIFYDLPQGNGFCLGQLNSDNKSQLVQKVRSKIGCGIQLTREVDGVWVYNRSSYPIFIKSATLDNPDSRTLLVHKVFPGFSIKAFDYEKAYSLQRPNDHEFMQQPWTGFTVQISFVKGWGQCYTRQFISSCPCWLEVIFNSR", "notes": "Expressed by transfection in COS cells and immunoprecipitated with Flag antibody; also called F-mSmad7; mSmad7"}}, "key": {"[1]": {"biological_target": "T1, heteromeric complex of kinase-deficient TβR-II and TβR-I (UniProt P36897 34-503; P37173 23-567)", "T1 construct": "whole, on cells; also called TβR-II KD with TβR-I", "T1 sequence (P36897 34-503 limits assumed, chain 1 of 2)": "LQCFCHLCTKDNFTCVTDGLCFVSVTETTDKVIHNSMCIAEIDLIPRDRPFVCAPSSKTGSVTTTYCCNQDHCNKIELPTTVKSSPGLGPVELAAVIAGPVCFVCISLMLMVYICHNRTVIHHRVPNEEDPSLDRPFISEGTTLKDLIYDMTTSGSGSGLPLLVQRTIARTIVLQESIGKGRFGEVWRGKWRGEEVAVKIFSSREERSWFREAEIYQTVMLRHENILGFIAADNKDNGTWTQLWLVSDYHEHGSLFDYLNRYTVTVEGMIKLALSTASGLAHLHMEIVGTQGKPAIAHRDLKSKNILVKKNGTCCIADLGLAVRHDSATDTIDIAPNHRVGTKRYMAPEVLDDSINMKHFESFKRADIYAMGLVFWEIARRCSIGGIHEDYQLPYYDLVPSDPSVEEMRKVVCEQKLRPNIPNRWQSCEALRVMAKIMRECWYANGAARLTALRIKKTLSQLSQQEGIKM", "T1 sequence (P37173 23-567 K277R limits assumed, chain 2 of 2)": "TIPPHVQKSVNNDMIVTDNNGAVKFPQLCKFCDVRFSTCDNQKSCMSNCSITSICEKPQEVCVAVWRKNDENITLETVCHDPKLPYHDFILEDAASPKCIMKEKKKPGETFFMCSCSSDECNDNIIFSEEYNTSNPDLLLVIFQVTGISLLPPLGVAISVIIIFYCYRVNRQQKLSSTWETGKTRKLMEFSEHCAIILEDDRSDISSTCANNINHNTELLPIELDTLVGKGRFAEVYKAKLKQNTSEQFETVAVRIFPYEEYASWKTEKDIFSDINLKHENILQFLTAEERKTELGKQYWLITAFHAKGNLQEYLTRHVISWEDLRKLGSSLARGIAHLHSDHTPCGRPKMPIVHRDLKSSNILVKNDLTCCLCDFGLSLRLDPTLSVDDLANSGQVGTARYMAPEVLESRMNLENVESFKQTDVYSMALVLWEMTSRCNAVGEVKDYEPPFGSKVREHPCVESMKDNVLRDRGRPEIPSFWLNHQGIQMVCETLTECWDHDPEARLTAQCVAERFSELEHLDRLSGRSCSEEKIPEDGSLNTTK", "assay": "co-immunoprecipitation with Flag antiserum of 125I-TGF-β1 affinity-labeled receptors, COS cells", "method": "(§1) To obtain insight into the mechanism by which Smad7 exerts its negative role in signaling by TGF-β family members, it was tested whether Smad7, like Smad2 and Smad3 (Zhang et al., *Nature* 383:168–172, 1996; Macías-Silva et al., *Cell* 87:1215–1224, 1996; Nakao et al., 1997), can associate with the TGF-β receptor complex. COS cells transfected with N-terminally Flag-tagged Smad7 in combination with TβR-II (wild-type, WT, or kinase-deficient mutant, KD) and TβR-I (wild-type or kinase deficient mutant) were affinity labeled with ^125I-TGF-β1, and cell lysates were subjected to immunoprecipitation with Flag antiserum against the Flag-epitope in Smad7. Immunoprecipitates were analyzed by SDS-PAGE and FujiX Bio-Imager. Expression of receptors and F-Smad7 after transfection was determined by immunoprecipitation with VPN antibody against TβR-I or DRL antibody against TβR-II on aliquots of cell lysates, and by immunoprecipitation with Flag antibody on lysates [^35S]methionine/cysteine labeled transfected cells. […] In contrast, Smad2 and Smad3 interact stably only with complex of […] (Macías-Silva et al., 1996; Nakao et al., 1997). No interaction was observed between Smad7 and a heteromeric complex of kinase-deficient TβR-II and TβR-I, or with TβR-II alone (FIG. 3). […]"}, "TβR-II alone": {"biological_target": "T2, TβR-II alone (UniProt P37173 23-567, limits assumed)", "T2 construct": "whole, on cells", "T2 sequence (P37173 23-567 limits assumed)": "as the sequence (P37173 23-567 K277R limits assumed, chain 2 of 2) above, with R255K counted along it", "assay": "co-immunoprecipitation with Flag antiserum of 125I-TGF-β1 affinity-labeled receptors, COS cells", "method": "as §1"}}, "data": [{"binder": "B1", "values": [{"measurement": "binding result", "setting": "[1]", "value": "no binding"}, {"measurement": "binding result", "setting": "TβR-II alone", "value": "no binding"}]}]}
